In assay [1] the target is Abp1 (endogenous) (Dictyostelium (endogenous in Dictyostelium cells)). The assay is described as follows: native gel or EMSA.
A further assay concerns the target GST-Abp1 (Dictyostelium). The assay is described as follows: SPR. (SPR reads the build-up and loss of mass on a sensor chip optically.)
The target in another assay is T1, His-tagged dynamin A (Dictyostelium, UniProt Q94464 1-853).
T1 sequence (looked up): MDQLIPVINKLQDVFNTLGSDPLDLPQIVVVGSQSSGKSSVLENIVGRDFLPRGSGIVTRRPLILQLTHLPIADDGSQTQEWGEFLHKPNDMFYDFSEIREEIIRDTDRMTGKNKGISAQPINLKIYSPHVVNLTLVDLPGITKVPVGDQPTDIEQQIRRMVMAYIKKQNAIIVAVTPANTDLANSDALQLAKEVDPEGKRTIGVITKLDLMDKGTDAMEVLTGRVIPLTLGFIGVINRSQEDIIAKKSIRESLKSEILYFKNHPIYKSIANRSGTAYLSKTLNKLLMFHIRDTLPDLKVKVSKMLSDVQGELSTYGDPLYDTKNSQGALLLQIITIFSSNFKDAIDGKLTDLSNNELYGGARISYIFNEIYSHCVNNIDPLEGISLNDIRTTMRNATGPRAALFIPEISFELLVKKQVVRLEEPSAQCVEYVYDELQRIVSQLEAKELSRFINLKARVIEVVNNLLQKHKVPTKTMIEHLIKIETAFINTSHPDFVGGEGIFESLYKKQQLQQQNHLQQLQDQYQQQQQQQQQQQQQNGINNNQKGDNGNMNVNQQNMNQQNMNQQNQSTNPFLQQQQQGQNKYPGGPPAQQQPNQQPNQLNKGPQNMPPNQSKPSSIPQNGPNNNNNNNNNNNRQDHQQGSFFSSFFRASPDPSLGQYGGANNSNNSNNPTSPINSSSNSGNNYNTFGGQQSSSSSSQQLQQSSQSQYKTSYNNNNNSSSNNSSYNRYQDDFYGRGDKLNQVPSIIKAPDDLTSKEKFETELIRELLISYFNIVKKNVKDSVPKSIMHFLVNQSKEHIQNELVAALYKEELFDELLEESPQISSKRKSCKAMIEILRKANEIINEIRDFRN
Put plainly: far-Western, overlay or dot blot.

Assay [2] concerns the target T2, GST fusion with the GPR loop of MyoK (Dictyostelium, UniProt Q9XXV8 114-272).
T2 sequence (looked up): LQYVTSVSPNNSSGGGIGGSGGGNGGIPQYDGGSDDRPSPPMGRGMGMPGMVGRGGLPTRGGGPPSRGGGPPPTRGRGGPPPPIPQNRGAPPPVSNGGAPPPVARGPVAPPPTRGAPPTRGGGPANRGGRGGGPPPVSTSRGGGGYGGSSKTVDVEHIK
The assay is described as follows: SPR.

The stoichiometry N is the number of molecules, sites or subunits per partner or assembly. Molecule Abp1 (endogenous) (natural protein) showed a stoichiometry N in assay [1] of 2.

B1: GST fusion with the GPR loop of MyoK (domain or fragment)
chain: T2 sequence (looked up)
The term Kd denotes the equilibrium constant for the complex coming apart. A lower Kd goes with tighter binding. The molecule B1 came in with a Kd in the assay with GST-Abp1 (Dictyostelium) of 27 nM.

B2: His-tagged dynamin A (natural protein)
chain: T1 sequence (looked up)
Regarding B2, in the assay with GST-Abp1 (Dictyostelium), the Kd came out at 2.6 nM.

B3: Profilin I (natural protein, Dictyostelium, UniProt P26199 1-126, looked up)
chain: MSWQQYVDEQLTGAGLSQGAILGANDGGVWAKSSGINITKPEGDGIAALFKNPAEVFAKGALIGGVKYMGIKGDPQSIYGKKGATGCVLVRTGQAIIVGIYDDKVQPGSAALIVEKLGDYLRDNGY
As to B3, in the assay with His-tagged dynamin A, the binding result is listed as “binds”. For the same molecule, the Kd in assay [2] was around 500 nM.

B4: Profilin II (natural protein, Dictyostelium, UniProt P26200 1-124, looked up)
chain: MTWQAYVDNNLLGAGFASAALLGAADGSVWAHSAGFNVAEGKAITALFQKDGAAFATGIHVAGKKYMAIKSDTRSAYGKLGAGGVVCVKTLTCIIVAVYDDKLQPGAAANIAEKLADYLIDNNC
Take B4: the binding result with His-tagged dynamin A is “binds”. Also, the Kd in assay [2] amounted to 108 nM; in the assay with GST-Abp1 (Dictyostelium) it was 11 nM.

(Values after publication PMC2861610 (Molecular Biology of the Cell, 2010).)
